Data on 4 molecules can be found in patent US20250109215A1 (Xencor, published 2025).

In general, Kd refers to the free concentration of one partner at which half of the binding sites on the other are occupied at equilibrium, for simple one-to-one binding. A lower Kd goes with a tighter complex. As a reminder, the koff is the first-order rate constant of dissociation. A word on the kon: it is the rate constant with which the complex forms.

In assay [1] the target is T1, CD3 (Homo sapiens (Human), UniProt P07766 23-126; P04234 22-105).
T1 construct: not shown: The Fc carrier of the Sino Biological CD3 delta-epsilon-Fc heterodimer; copies: 1 + 1
The assay is described as follows: Biacore.

Assay [2] deals with T1, CD3. The assay is described as follows: Biacore; column head 'KD (nM)*', anti-CD3 scFv-Fc H1.30_L1.47. (SPR reads the build-up and loss of mass on a sensor chip optically.)
A further assay deals with T2, human CD3 (human, UniProt P07766 23-126; P04234 22-105).
T2 construct: The legend says only human CD3
Briefly: method not stated in the legend of FIG. 142.

Another assay has as its target T3, cyno CD3 (cynomolgus monkey, UniProt Q95LI5 22-117; Q95LI8 22-105).
T3 construct: The legend says only cyno CD3; also called cynomolgus monkey CD3
Briefly: method not stated in the legend of FIG. 143.

The target in assay [3] is T4, human CD123 (human, UniProt P26951 19-305, limits assumed).
T4 construct: Construct on the chip is not described; also called CD123 chip
T4 sequence (looked up): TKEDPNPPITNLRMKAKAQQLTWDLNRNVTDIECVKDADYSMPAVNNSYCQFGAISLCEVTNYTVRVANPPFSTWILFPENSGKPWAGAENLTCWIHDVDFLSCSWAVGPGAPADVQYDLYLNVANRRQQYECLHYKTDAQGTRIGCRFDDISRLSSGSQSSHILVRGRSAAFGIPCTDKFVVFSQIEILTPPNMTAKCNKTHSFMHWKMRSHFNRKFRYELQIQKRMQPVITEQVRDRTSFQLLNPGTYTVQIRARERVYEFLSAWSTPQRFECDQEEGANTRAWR
The assay is described as follows: Biacore, Fab-His on CD123 (Example 3; the sheet names no assay).

In assay [4] the target is T4, human CD123. The assay is described as follows: off-rate screen of Fab-His on a Biacore CD123 chip (Example 3), relative to 7G3 H1L1 Fab.
Assay [5] concerns the target T4, human CD123. Briefly: SPR sensorgrams of the Fab on CD123 (highest trace about 153 RU); the value is printed over the panel without a name and equals the rounded KD of Figure 127.
The target of assay [6] is T4, human CD123. Briefly: SPR sensorgrams on CD123 (highest trace about 160 RU); the value is printed over the panel without a name and equals the rounded KD of Figure 127.

T1 sequence (P07766 23-126 limits assumed, chain 1 of 2): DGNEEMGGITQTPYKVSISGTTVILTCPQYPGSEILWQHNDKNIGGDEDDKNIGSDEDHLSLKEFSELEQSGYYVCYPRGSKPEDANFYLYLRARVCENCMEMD
T1 sequence (P04234 22-105 limits assumed, chain 2 of 2): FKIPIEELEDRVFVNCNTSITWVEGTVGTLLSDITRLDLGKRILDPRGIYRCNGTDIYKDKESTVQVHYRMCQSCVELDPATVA
T3 sequence (Q95LI5 22-117, form in doubt, chain 1 of 2): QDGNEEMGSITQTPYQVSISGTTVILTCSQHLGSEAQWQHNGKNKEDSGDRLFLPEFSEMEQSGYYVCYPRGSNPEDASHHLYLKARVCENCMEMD
T3 sequence (Q95LI8 22-105, form in doubt, chain 2 of 2): as the sequence (P04234 22-105 limits assumed, chain 2 of 2) above, with I5V, N15K, I20V, S32T, D33N, I34N, T64A, S74N, V83L counted along it
T2 sequence (P07766 23-126, chain 1 of 2): as the sequence (P07766 23-126 limits assumed, chain 1 of 2) above
T2 sequence (P04234 22-105, chain 2 of 2): as the sequence (P04234 22-105 limits assumed, chain 2 of 2) above

B1: XENP13243 (bispecific antibody)
heavy: EVQLVESGGGLVQPGGSLRLSCAASGFDFSRSWMNWVRQAPGKGLEWVSEINPDSSTINYATSVKGRFTISRDNSKNTLYLQMNSLRAEDTAVYYCARYGNWFPYWGQGTLVTVSSASTKGPSVFPLAPSSKSTSGGTAALGCLVKDYFPEPVTVSWNSGALTSGVHTFPAVLQSSGLYSLSSVVTVPSSSLGTQTYICNVNHKPSDTKVDKKVEPKSCDKTHTCPPCPAPPVAGPSVFLFPPKPKDTLMISRTPEVTCVVVDVKHEDPEVKFNWYVDGVEVHNAKTKPREEEYNSTYRVVSVLTVLHQDWLNGKEYKCKVSNKALPAPIEKTISKAKGQPREPQVYTLPPSREEMTKNQVSLTCDVSGFYPSDIAVEWESDGQPENNYKTTPPVLDSDGSFFLYSKLTVDKSRWEQGDVFSCSVMHEALHNHYTQKSLSLSPGK
scFv-Fc: not shown
light: DIVMTQSPSSLSASVGDRVTITCRASQNVDTNVAWYQQKPGQSPKALIYSASYRYSGVPDRFTGSGSGTDFTLTISSLQPEDFATYFCQQYDSYPLTFGGGTKLEIKRTVAAPSVFIFPPSDEQLKSGTASVVCLLNNFYPREAKVQWKVDNALQSGNSQESVTEQDSKDSTYSLSSTLTLSKADYEKHKVYACEVTHQGLSSPVTKSFNRGEC
notes: anti-CD38 x anti-CD3; copies: 1 + 1 + 1
Turning to B1, in the assay with CD3 [1], the “Fold Decrease in CD3 binding from H1.30_L1.47” value was determined as 1 fold. This molecule also returned a Kd with CD3 [2] of 4.91 nM.

B2: XENP14045 (anti-CD123 x anti-CD3) bispecific (bispecific antibody)
heavy: QVQLQQSGAEVKKPGASVKVSCKASGYTFTDYYMKWVKQSHGKSLEWMGDIIPSNGATFYNQKFKGKATLTVDRSTSTAYMELSSLRSEDTAVYYCARSHLLRASWFAYWGQGTLVTVSSASTKGPSVFPLAPSSKSTSGGTAALGCLVKDYFPEPVTVSWNSGALTSGVHTFPAVLQSSGLYSLSSVVTVPSSSLGTQTYICNVNHKPSDTKVDKKVEPKSCDKTHTCPPCPAPPVAGPSVFLFPPKPKDTLMISRTPEVTCVVVDVKHEDPEVKFNWYVDGVEVHNAKTKPREEEYNSTYRVVSVLTVLHQDWLNGKEYKCKVSNKALPAPIEKTISKAKGQPREPQVYTLPPSREEMTKNQVSLTCDVSGFYPSDIAVEWESDGQPENNYKTTPPVLDSDGSFFLYSKLTVDKSRWEQGDVFSCSVMHEALHNHYTQKSLSLSPGK
scFv-Fc: not shown
light: not shown
notes: XENP13967 has the same CD123 side with a different CD3 scFv
As for B2, the figures for the dissociation constant (Kd) with human CD3 and with cyno CD3 were 8.1 nM and 5.7 nM, respectively.

B3: 13760 7G3_H0L0_Fab_His (Fab, V domains shown)
VH: EVQLQQSGPELVKPGASVKMSCKASGYTFTDYYMKWVKQSHGKSLEWIGDIIPSNGATFYNQKFKGKATLTVDRSSSTAYMHLNSLTSEDSAVYYCTRSHLLRASWFAYWGQGTLVTVSA
VL: DFVMTQSPSSLTVTAGEKVTMSCKSSQSLLNSGNQKNYLTWYLQKPGQPPKLLIYWASTRESGVPDRFTGSGSGTDFTLTISSVQAEDLAVYYCQNDYSYPYTFGGGTKLEIKR
notes: Fab of the murine 7G3 variable regions; also called XENP13760
In the assay with human CD123 [3], B3 showed a Ka of 6.25e+09 M⁻¹, a Kd of 0.16 nM, a koff of 0.000108 s⁻¹ and an on-rate constant (kon) of 674000 M⁻¹ s⁻¹. The “Fold improvement in off-rate vs. H1L1” value in the assay with human CD123 [4] is 7.21 fold. Moreover, the Kd with human CD123 [5] amounted to 0.2 nM.

B4: 13967 7G3_H1.109_L1.57_Fab_His (Fab, V domains shown)
VH: QVQLQQSGAEVKKPGASVKVSCKASGYTFTDYYMKWVKQSHGKSLEWMGDIIPSNGATFYNQKFKGKATLTVDRSTSTAYMELSSLRSEDTAVYYCARSHLLRASWFAYWGQGTLVTVSS
VL: DFVMTQSPDSLAVSLGERATINCKSSQSLLNTGNQKNYLTWYQQKPGQPPKLLIYWASTRESGVPDRFTGSGSGTDFTLTISSLQAEDVAVYYCQNDYSYPYTFGGGTKLEIKR
notes: also called XENP13967
In the assay with human CD123 [3], B4 displayed a Ka of 1.05e+10 M⁻¹, a Kd of 0.0954 nM, an off-rate (koff) of 6.25e-05 s⁻¹ and an on-rate constant (kon) of 655000 M⁻¹ s⁻¹. Further, the affinity in the assay with human CD123 [6], expressed as Kd, was 0.1 nM.
